Patent publication US20240301062A1 (BEIGENE SWITZERLAND, published 2024)
Positions count from the first letter of the chain named. Where “and” joins values, the source holds several entries; their conditions need not be identical. Equal values may be shown once. Read-outs that look alike come from different tables or passages of the source.

T1: mouse CLDN6 (mouse, UniProt Q9Z262 1-219)
T1 construct: whole, on cells
T1 sequence (looked up): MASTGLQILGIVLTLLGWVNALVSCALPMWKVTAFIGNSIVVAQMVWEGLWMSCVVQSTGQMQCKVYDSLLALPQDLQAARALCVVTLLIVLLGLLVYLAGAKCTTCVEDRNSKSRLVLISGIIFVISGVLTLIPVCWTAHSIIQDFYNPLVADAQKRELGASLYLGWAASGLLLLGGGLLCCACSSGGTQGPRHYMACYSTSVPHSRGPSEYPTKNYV

T2: human claudin 6 (CLDN6) (human, UniProt P56747 1-220)
T2 construct: also called human CLDN6; hCLDN6
T2 sequence: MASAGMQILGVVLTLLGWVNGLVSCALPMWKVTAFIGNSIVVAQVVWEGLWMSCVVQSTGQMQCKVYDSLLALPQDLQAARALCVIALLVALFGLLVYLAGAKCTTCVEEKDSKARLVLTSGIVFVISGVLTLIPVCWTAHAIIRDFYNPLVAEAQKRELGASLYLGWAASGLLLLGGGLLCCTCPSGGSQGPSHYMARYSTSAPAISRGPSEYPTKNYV

B1: chimeric sp34 (ch-sp34) (antibody, V domains shown)
VH: EVQLVESGGGLVQPKGSLKLSCAASGFTFNTYAMNWVRQAPGKGLEWVARIRSKYNNYATYYADSVKDRFTISRDDSQSILYLQMNNLKTEDTAMYYCVRHGNFGNSYVSWFAYWGQGTLVTVSS
VL: QAVVTQESALTTSPGETVTLTCRSSTGAVTTSNYANWVQEKPDHLFTGLIGGTNKRAPGVPARFSGSLIGDKAALTITGAQTEDEAIYFCALWYSNLWVFGGGTKLTVL
B2: humanized sp34 BG53P (antibody, V domains shown)
VH: B1 VH with K15G, K19R, S77A, Q78K, I80S, N87S, K89R, T90A
VL: QAVVTQSPATLSVSPGERATLSCRSSTGAVTTSNYANWVQEKPGQLFTGLIGGTNKRAPGIPARFSGSLSGDEATLTISSLQSEDFAIYFCALWYSNLWVFGGGTKVEIK
notes: also called hu-sp34
B3: humanized sp34 BG56P (antibody, V domains shown)
VH: B1 VH with K15G, K19R, S77A, Q78K, S79N, I80S, N87S, K89R, T90A, M95V
VL: B2 VL with Q1E, A2I, V4L, E41Q, L46A, F47P, T48R, I88V, F90Y
B4: BG87P-21 (antibody, V domains shown)
VH: QVQLVQSGAEVKKPGASVKVSCKASGYSFTDYHINWVRQAPGQRLEWMGWIYPGSGYTKYNEKFKGRVTITRDTSASTAYMELSSLRSEDTAVYYCARSGIYHYVSSYYFDHWGKGTTVTVSS
VL: DIQMTQSPSTLSASVGDRVTITCKASQDVGTAVAWYQQKPGKAPKLLIYWASTRHTGVPSRFSGSGSGTEFTLTISSLQPDDFATYYCQQYSSYTFGGGTKVEIK
B5: BG87P-31 (antibody, V domains shown)
VH: B4 VH with V5Q, V11T, P41S, W50Y, Y57H, Y60K
VL: B4 VL with V29A, T31S, Y49K
notes: Solubility engineering variant of BG87P-21
B6: BG87P-33 (antibody, V domains shown)
VH: EVQLQESGGGLVQPGGSLRLSCAASGYSFTDYHINWVRQAPGKGLEWVSYIYPGSGHTKYNEKFKGRFTISRDTSKNTAYLQMNSLRAEDTAVYYCARSGIYHYVSSYYFDHWGQGTLVTVSS
VL: B4 VL with V29A, T31S
notes: Framework-swapped variant; also called BG87-33

Key:
[1] = biological target: T3, human native CD3 on live cells (HuT78, Jurkat) (human, UniProt P07766 23-207; P09693 23-182; P04234 22-171); experiment: flow cytometry on live HuT78 cells, mouse anti-human IgG secondary, MFI
T3 construct: whole, on cells; also called human CD3
Procedure: (§1) For affinity determination, antibodies were captured by anti-human Fc surface, and used in the affinity-assay based on surface plasmon resonance (SPR) technology. The binding activity of humanized sp34 to bind native CD3 on live cells was evaluated using HuT78 cells in a FACS based assay. Live HuT78 cells were seeded in 96-well plate, and were incubated with a series of dilutions of chimeric or humanized sp34. Mouse anti-Human IgG was used as second antibody to detect antibody binding to the cell surface. EC50 values for dose-dependent binding to human native CD3 were determined by fitting the dose-response data to the four-parameter logistic model with GraphPad Prism.

CD3ε (SPR analyte) [2] = biological target: T4, CD3ε (SPR analyte) (UniProt P07766 23-126, limits assumed); experiment: SPR, antibody captured by anti-human Fc
Procedure: as §1

[3] = biological target: T3, human native CD3 on live cells (HuT78, …); experiment: flow cytometry on live HuT78 cells, mouse anti-human IgG secondary, MFI; remark: listed apart in the source
Procedure: as §1

[4] = biological target: T3, human native CD3 on live cells (HuT78, …); experiment: FACS, HuT78 cells
Procedure: as §1

CD3ε (SPR analyte) [5] = biological target: T4, CD3ε (SPR analyte); experiment: SPR, antibody captured by anti-human Fc; remark: listed apart in the source
Procedure: as §1

[6] = biological target: T3, human native CD3 on live cells (HuT78, …); experiment: FACS, HuT78 cells; remark: listed apart in the source
Procedure: as §1

CD3ε (SPR analyte) [7] = biological target: T4, CD3ε (SPR analyte); experiment: SPR
mouse CLDN6 = biological target: T1, mouse CLDN6; experiment: flow cytometry on CHOK1/mouse CLDN6 cells, MFI(PE)
cyno CLDN6 [8] = biological target: T5, cyno CLDN6 (cyno); experiment: flow cytometry on CHOK1/cyno CLDN6 cells, MFI(PE)
T5 construct: whole, on cells; also called cynomolgus CLDN6

human claudin 6 (CLDN6) [9] = biological target: T2, human claudin 6 (CLDN6); experiment: flow cytometry on HEK293T/human CLDN6 cells, goat anti-human IgG secondary, MFI(PE)
Procedure: (§2) For affinity determination, CLDN6 over-expressing HEK293T cells and cancer cell line PA-1 which express high levels of human CLDN6 were used to evaluate the binding activity of BG87P related engineering variants. Live cells were seeded in 96-well plate, and were incubated with a series of dilutions of chBG87P and engineered variants thereof. Goat anti-human IgG was used as second antibody to detect antibody binding to the cell surface. EC50 values for dose-dependent binding to CLDN6 expressing cell lines were determined by fitting the dose-response data to the four-parameter logistic model with GraphPad Prism. Cell binding activity of 1st round of BG87P humanization variants against HEK293T/human CLDN6 were compared to chBG87P and shown in FIG. 1A.

human claudin 6 (CLDN6) [10] = biological target: T2, human claudin 6 (CLDN6); experiment: FACS, PA-1 cells (endogenous CLDN6)
Procedure: as §2

human claudin 6 (CLDN6) [11] = biological target: T2, human claudin 6 (CLDN6); experiment: FACS, HEK293T-hCLDN6 cells
human claudin 6 (CLDN6) [12] = biological target: T2, human claudin 6 (CLDN6); experiment: FACS, HEK293-hCLDN6 cells
human claudin 6 (CLDN6) [13] = biological target: T2, human claudin 6 (CLDN6); experiment: FACS, HEK293T/human CLDN6 cells
Procedure: as §2
Beginning with the chBG87P antibody and BG87P-Bz0, several additional amino acid changes in the CDR regions of both VH and VL were made to further improve the biophysical properties for therapeutics use in human. The considerations included removing post translational modifications (PTM), improved heat stability (Tm), while maintaining binding activities, the resulted variants are BG87P-m1 (VH SEQ ID NO: 31 and VL SEQ ID NO: 8), BG87P-m2 (VH SEQ ID NO: 32 and VL SEQ ID NO: 8), BG87P-m3 (VH SEQ ID NO: 33 and VL SEQ ID NO: 8), and BG87P-m4 (VH SEQ ID NO: 34 and VL SEQ ID NO: 8) and BG87P-m5 (VH SEQ ID NO: 35 and VL SEQ ID NO: 14), BG87P-m6 (VH SEQ ID NO: 36 and VL SEQ ID NO 14), BG87P-m7 (VH SEQ ID NO: 37 and VL SEQ ID NO: 14), and BG87P-m8 (VH SEQ ID NO: 38 and VL SEQ ID NO: 14). Cell binding activity of chBG87P and BG87P-Bz0 related PTM removal variants against HEK293T/human CLDN6 was compared with chBG87P and BG87-Bz0, respectively ([…]). Cell binding affinity (EC50) and Emax (MFI) was normalized to chBG87P for directly comparison and ranking (Table 7).

cyno CLDN6 [14] = biological target: T5, cyno CLDN6; experiment: FACS, HEK293T-cyno-CLDN6 cells
cyno CLDN6 [15] = biological target: T5, cyno CLDN6; experiment: FACS, HEK293T_cyno-CLDN6 cells

T3 sequence (P07766 23-207, chain 1 of 3): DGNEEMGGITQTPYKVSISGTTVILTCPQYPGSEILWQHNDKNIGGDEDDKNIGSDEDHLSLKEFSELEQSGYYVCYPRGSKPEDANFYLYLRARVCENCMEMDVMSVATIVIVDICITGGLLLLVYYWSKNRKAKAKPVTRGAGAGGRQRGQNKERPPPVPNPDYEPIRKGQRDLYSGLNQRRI
T3 sequence (P09693 23-182, chain 2 of 3): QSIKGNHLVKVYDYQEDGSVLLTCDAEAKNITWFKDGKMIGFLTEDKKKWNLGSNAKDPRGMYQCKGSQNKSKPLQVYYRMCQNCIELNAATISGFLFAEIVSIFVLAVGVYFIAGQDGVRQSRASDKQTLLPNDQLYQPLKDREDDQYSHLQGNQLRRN
T3 sequence (P04234 22-171, chain 3 of 3): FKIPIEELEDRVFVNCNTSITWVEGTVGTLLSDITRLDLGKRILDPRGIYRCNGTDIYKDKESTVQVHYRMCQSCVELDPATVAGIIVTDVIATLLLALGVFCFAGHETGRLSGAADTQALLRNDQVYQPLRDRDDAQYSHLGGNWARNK
T4 sequence (P07766 23-126 limits assumed): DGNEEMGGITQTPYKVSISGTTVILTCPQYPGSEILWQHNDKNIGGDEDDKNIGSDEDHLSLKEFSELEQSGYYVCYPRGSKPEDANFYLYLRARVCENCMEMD

Binder	EC50 (read off the curve) [1] [µg/mL]	Kd (CD3ε (SPR analyte) [2]) [nM]	koff (CD3ε (SPR analyte) [2]) [s⁻¹]	kon (CD3ε (SPR analyte) [2]) [M⁻¹ s⁻¹]	EC50 (read off the curve) [3] [µg/mL]	EC50 [4] [nM]	Kd (CD3ε (SPR analyte) [5]) [nM]	koff (CD3ε (SPR analyte) [5]) [s⁻¹]	kon (CD3ε (SPR analyte) [5]) [M⁻¹ s⁻¹]	EC50 [6] [nM]	binding result (mouse CLDN6)	FACS Emax ratio to BG87P (human claudin 6 (CLDN6) [11]) [ratio]	FACS-Ec50 ratio to BG87P (human claudin 6 (CLDN6) [12]) [ratio]	FACS Emax ratio to BG87P (cyno CLDN6 [14]) [ratio]	EC50 (cyno CLDN6 [15]) [nM]	further results
B1	~0.4	2.3	0.000496	216000	~0.3	1.9	2.3	0.000496	216000	2.49	–	–	–	–	–	–
B2	~0.3	4.58	0.000484	106000	~0.3	1.8	2.65	0.000525	198000	1.72	–	–	–	–	–	–
B3	~0.7	7.06	0.000325	46000	~0.7	4.69	–	–	–	4.69	–	–	–	–	–	Kd (CD3ε (SPR analyte) [7]): 7.06 nM; koff (CD3ε (SPR analyte) [7]): 0.000325 s⁻¹; kon (CD3ε (SPR analyte) [7]): 46000 M⁻¹ s⁻¹
B4	–	–	–	–	–	–	–	–	–	–	binds	0.66	0.91	0.8	8.9	EC50 (read off the curve) (cyno CLDN6 [8]): ~9 nM; EC50 (read off the curve) (human claudin 6 (CLDN6) [9]): ~10 nM; EC50 (human claudin 6 (CLDN6) [10]): 2.8 nM and 2.62 nM; Emax ratio to BG87P (human claudin 6 (CLDN6) [10]): 0.61 ratio; EC50 (human claudin 6 (CLDN6) [13]): 3.07 nM; Emax ratio to BG87P (human claudin 6 (CLDN6) [13]): 0.78 ratio; Top MFI Mean (human claudin 6 (CLDN6) [13]): 149000 MFI
B5	–	–	–	–	–	–	–	–	–	–	–	0.76	1.6	–	–	–
B6	–	–	–	–	–	–	–	–	–	–	binds	0.91	2.45	0.75	25.8	–
